Results published in US20260049138A1 (Chugai, published 2026).
Substitutions are numbered along the chain they refer to. Names and notes keep the numbering of the source.

B1: GLS3000 H27dA one-arm antibody (antibody, human IgG1, kappa, L234A L235A, N297A, name in Kabat numbering)
heavy: QVQLVESGGGVVQPGRSLRLSCAASGFTFSNAWMHWVRQAPGKGLEWVAQIKAKSNNYATYYAESVKGRFTISRDDSKNSLYLQMNSLKTEDTAVYYCRYVHYGAYYGVDAWGQGTTVTVSSASTKGPSVFPLAPSSKSTSGGTAALGCLVKDYFPEPVTVSWNSGALTSGVHTFPAVLQSSGLYSLSSVVTVPSSSLGTQTYICNVNHKPSNTKVDKKVEPKSCDKTHTCPPCPAPEAAGGPSVFLFPPKPKDTLMISRTPEVTCVVVDVSHEDPEVKFNWYVDGVEVHNAKTKPREEQYASTYRVVSVLTVLHQDWLNGKEYKCKVSNKALPAPIEKTISKAKGQPREPQVYTLPPSRCELTKNQVSLSCAVKGFYPSDIAVEWESNGQPENNYKTTPPVLDSDGSFFLVSKLTVDKSRWQQGNVFSCSVMHEALHNHYTQKSLSLSPDYKDDDDK
chain: EPKSSDKTHTCPPCPAPELLGGPSVFLFPPKPKDTLMISRTPEVTCVVVDVSHEDPEVKFNWYVDGVEVHNAKTKPREEQYNSTYRVVSVLTVLHQDWLNGKEYKCKVSNKALPAPIEKTISKAKGQPREPQVCTLPPSRDELTKNQVSLWCLVKGFYPSDIAVEWESNGQPENNYKTTPPVLDSDGSFFLYSKLTVDKSRWQQGNVFSCSVMHEALHNRYTQKSLSLSP
light: DIVMTQSPLSLPVTPGEPASISCRSSQSLVASNRNTYLHWYQQKPGQAPRLLIYKVSNRFSGVPDRFSGSGSGTDFTLKISRVEAEDVGVYYCGQGTQVPYTFGQGTKLEIKRTVAAPSVFIFPPSDEQLKSGTASVVCLLNNFYPREAKVQWKVDNALQSGNSQESVTEQDSKDSTYSLSSTLTLSKADYEKHKVYACEVTHQGLSSPVTKSFNRGEC
B2: GLS3000 F55I one-arm antibody (antibody, human IgG1, kappa, L234A L235A, N297A, name in Kabat numbering)
heavy: B1 heavy
chain: B1 chain
light: B1 light with A31H, F60I
B3: GLS3000 F55V one-arm antibody (antibody, human IgG1, kappa, L234A L235A, N297A, name in Kabat numbering)
heavy: B1 heavy
chain: B1 chain
light: B1 light with A31H, F60V
B4: GLS3000 G89N one-arm antibody (antibody, human IgG1, kappa, L234A L235A, N297A, name in Kabat numbering)
heavy: B1 heavy
chain: B1 chain
light: B1 light with A31H, G94N
B5: GLS3000 G89R one-arm antibody (antibody, human IgG1, kappa, L234A L235A, N297A, name in Kabat numbering)
heavy: B1 heavy
chain: B1 chain
light: B1 light with A31H, G94R
B6: GLS3000 G89D one-arm antibody (antibody, human IgG1, kappa, L234A L235A, N297A, name in Kabat numbering)
heavy: B1 heavy
chain: B1 chain
light: B1 light with A31H, G94D
B7: GLS3000 F55H one-arm antibody (antibody, human IgG1, kappa, L234A L235A, N297A, name in Kabat numbering)
heavy: B1 heavy
chain: B1 chain
light: B1 light with A31H, F60H
B8: GLS3000 G89F one-arm antibody (antibody, human IgG1, kappa, L234A L235A, N297A, name in Kabat numbering)
heavy: B1 heavy
chain: B1 chain
light: B1 light with A31H, G94F
B9: GLS3000 F55E one-arm antibody (antibody, human IgG1, kappa, L234A L235A, N297A, name in Kabat numbering)
heavy: B1 heavy
chain: B1 chain
light: B1 light with A31H, F60E
B10: GLS3000 F55Y one-arm antibody (antibody, human IgG1, kappa, L234A L235A, N297A, name in Kabat numbering)
heavy: B1 heavy
chain: B1 chain
light: B1 light with A31H, F60Y
B11: GLS3000 F55G one-arm antibody (antibody, human IgG1, kappa, L234A L235A, N297A, name in Kabat numbering)
heavy: B1 heavy
chain: B1 chain
light: B1 light with A31H, F60G
B12: GLS3000 G89A one-arm antibody (antibody, human IgG1, kappa, L234A L235A, N297A, name in Kabat numbering)
heavy: B1 heavy
chain: B1 chain
light: B1 light with A31H, G94A
B13: GLS3000 F55P one-arm antibody (antibody, human IgG1, kappa, L234A L235A, N297A, name in Kabat numbering)
heavy: B1 heavy
chain: B1 chain
light: B1 light with A31H, F60P
B14: GLS3000 F55K one-arm antibody (antibody, human IgG1, kappa, L234A L235A, N297A, name in Kabat numbering)
heavy: B1 heavy
chain: B1 chain
light: B1 light with A31H, F60K
B15: GLS3000 F55Q one-arm antibody (antibody, human IgG1, kappa, L234A L235A, N297A, name in Kabat numbering)
heavy: B1 heavy
chain: B1 chain
light: B1 light with A31H, F60Q
B16: GLS3000 G89L one-arm antibody (antibody, human IgG1, kappa, L234A L235A, N297A, name in Kabat numbering)
heavy: B1 heavy
chain: B1 chain
light: B1 light with A31H, G94L
B17: GLS3000 G89T one-arm antibody (antibody, human IgG1, kappa, L234A L235A, N297A, name in Kabat numbering)
heavy: B1 heavy
chain: B1 chain
light: B1 light with A31H, G94T
B18: GLS3000 G89K one-arm antibody (antibody, human IgG1, kappa, L234A L235A, N297A, name in Kabat numbering)
heavy: B1 heavy
chain: B1 chain
light: B1 light with A31H, G94K
B19: GLS3000 F55A one-arm antibody (antibody, human IgG1, kappa, L234A L235A, N297A, name in Kabat numbering)
heavy: B1 heavy
chain: B1 chain
light: B1 light with A31H, F60A
B20: GLS3000 G89H one-arm antibody (antibody, human IgG1, kappa, L234A L235A, N297A, name in Kabat numbering)
heavy: B1 heavy
chain: B1 chain
light: B1 light with A31H, G94H
B21: GLS3000 F55R one-arm antibody (antibody, human IgG1, kappa, L234A L235A, N297A, name in Kabat numbering)
heavy: B1 heavy
chain: B1 chain
light: B1 light with A31H, F60R
B22: GLS3000 F55S one-arm antibody (antibody, human IgG1, kappa, L234A L235A, N297A, name in Kabat numbering)
heavy: B1 heavy
chain: B1 chain
light: B1 light with A31H, F60S
B23: GLS3000 F55N one-arm antibody (antibody, human IgG1, kappa, L234A L235A, N297A, name in Kabat numbering)
heavy: B1 heavy
chain: B1 chain
light: B1 light with A31H, F60N
B24: GLS3000 F55D one-arm antibody (antibody, human IgG1, kappa, L234A L235A, N297A, name in Kabat numbering)
heavy: B1 heavy
chain: B1 chain
light: B1 light with A31H, F60D
B25: GLS3000 F55L one-arm antibody (antibody, human IgG1, kappa, L234A L235A, N297A, name in Kabat numbering)
heavy: B1 heavy
chain: B1 chain
light: B1 light with A31H, F60L
B26: GLS3000 G89V one-arm antibody (antibody, human IgG1, kappa, L234A L235A, N297A, name in Kabat numbering)
heavy: B1 heavy
chain: B1 chain
light: B1 light with A31H, G94V
B27: GLS3000 G89E one-arm antibody (antibody, human IgG1, kappa, L234A L235A, N297A, name in Kabat numbering)
heavy: B1 heavy
chain: B1 chain
light: B1 light with A31H, G94E
B28: GLS3000 F55W one-arm antibody (antibody, human IgG1, kappa, L234A L235A, N297A, name in Kabat numbering)
heavy: B1 heavy
chain: B1 chain
light: B1 light with A31H, F60W
B29: GLS3000 G89P one-arm antibody (antibody, human IgG1, kappa, L234A L235A, N297A, name in Kabat numbering)
heavy: B1 heavy
chain: B1 chain
light: B1 light with A31H, G94P
B30: GLS3000 G89I one-arm antibody (antibody, human IgG1, kappa, L234A L235A, N297A, name in Kabat numbering)
heavy: B1 heavy
chain: B1 chain
light: B1 light with A31H, G94I
B31: GLS3000 G89Q one-arm antibody (antibody, human IgG1, kappa, L234A L235A, N297A, name in Kabat numbering)
heavy: B1 heavy
chain: B1 chain
light: B1 light with A31H, G94Q
B32: GLS3000 F55T one-arm antibody (antibody, human IgG1, kappa, L234A L235A, N297A, name in Kabat numbering)
heavy: B1 heavy
chain: B1 chain
light: B1 light with A31H, F60T
B33: GLS3000 G89M one-arm antibody (antibody, human IgG1, kappa, L234A L235A, N297A, name in Kabat numbering)
heavy: B1 heavy
chain: B1 chain
light: B1 light with A31H, G94M
B34: GLS3000 F55M one-arm antibody (antibody, human IgG1, kappa, L234A L235A, N297A, name in Kabat numbering)
heavy: B1 heavy
chain: B1 chain
light: B1 light with A31H, F60M

target: T1, CD3ε homodimer protein (human, UniProt P07766 23-126, limits assumed); assay: SPR Biacore T200, CD3ε homodimer on chip;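 also: Light-chain single-residue variant antibodies injected over amine-coupled CD3ε homodimer on a CM4 chip at 25 °C, bound amount divided by that of the GLS3000-containing antibody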
T1 construct: also called CD3 (CD3ε)
T1 sequence (P07766 23-126 limits assumed): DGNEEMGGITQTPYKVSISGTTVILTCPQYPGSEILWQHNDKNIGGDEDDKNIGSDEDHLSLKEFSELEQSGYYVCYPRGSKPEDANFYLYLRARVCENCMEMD

Binder | ratio of amount bound vs unaltered GLS3000
B1 | 0.48
B2 | 0.82
B3 | 0.71
B4 | 0.8
B5 | 0.19
B6 | 0.33
B7 | 0.94
B8 | 1.09
B9 | 0.72
B10 | 0.92
B11 | 1.31
B12 | 1.13
B13 | 1.16
B14 | 1.33
B15 | 0.91
B16 | 0.94
B17 | 1.03

Binder | ratio of amount bound vs unaltered GLS3000
B18 | 0.4
B19 | 1.13
B20 | 0.7
B21 | 1.31
B22 | 0.69
B23 | 0.98
B24 | 0.65
B25 | 0.76
B26 | 1.63
B27 | 0.26
B28 | 0.69
B29 | 0.35
B30 | 1.07
B31 | 0.38
B32 | 0.41
B33 | 0.52
B34 | 0.8
